Laboratory results reported in US20220193237A1 (Bristol-Myers Squibb, published 2022).

T1: monomeric human CTLA-4 (human, UniProt P16410 36-161, limits assumed)
T1 construct: Soluble monomeric analyte in SPR; also called huCTLA-4
T1 sequence: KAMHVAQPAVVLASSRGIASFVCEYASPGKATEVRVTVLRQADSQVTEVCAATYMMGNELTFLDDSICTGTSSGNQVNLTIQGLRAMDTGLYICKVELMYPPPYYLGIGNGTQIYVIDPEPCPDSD


What was measured:
monomeric human CTLA-4 [1] = target: T1, monomeric human CTLA-4; experiment: SPR, captured Fab, pH 6.0
Protocol: (§1) Binding of selected variants to human CTLA-4 was determined essentially as described in Example 3. […] Nomenclature and sequences for these antibodies is provided at Tables 6 and 7, and in the sequence listing as summarized at Table 8.
(§2) Monomeric human CTLA-4 was flowed as analyte with up to 2 μM top concentration. Between cycles, the capture surface was regenerated with 75 mM phosphoric acid. Experiments were run on a BIACORE® T200 instrument at 37° C. Running buffers were HEPES buffered saline for pH 7.4 experiments and Bis-Tris buffered saline for lower pH experiments. […] Double referenced sensorgrams were fitted to a 1:1 Langmuir binding model with mass transport to determine equilibrium dissociation constants (KD), as well as association (kₐ) and dissociation (kd) rate constants where appropriate.

monomeric human CTLA-4 [2] = target: T1, monomeric human CTLA-4; experiment: SPR, captured Fab, pH 7.4
Protocol: as §1, §2

monomeric human CTLA-4 [3] = target: T1, monomeric human CTLA-4; experiment: SPR, captured Fab, pH 6.0 vs 7.4
Protocol: as §1, §2

Binder | Kd (monomeric human CTLA-4 [1]) [nM] | kon (monomeric human CTLA-4 [1]) [M⁻¹ s⁻¹] | t1/2 (monomeric human CTLA-4 [1]) [s] | Kd (monomeric human CTLA-4 [2]) [nM] | kon (monomeric human CTLA-4 [2]) [M⁻¹ s⁻¹] | t1/2 (monomeric human CTLA-4 [2]) [s] | KD 7.4/6 (APBP) (monomeric human CTLA-4 [3]) | ka 6/7.4 (monomeric human CTLA-4 [3]) | t1/2 6/7.4 (monomeric human CTLA-4 [3])
ipi.20 Fab (Fab, V domains shown, Tested as monovalent Fab) VH: QVQLVESGGGVVQPGRSLRLSCAASGFTFSSYTMHWVRQAPGKGLEWVTFISYDGNNKYYADSVKGRFTISRDNSKNTLYLQMNSLRAEDTAIYYCARTGWLGPFDYWGQGTLVTVSS VL: not shown | 32 | 1.6e+06 | 14 | 84 | 790000 | 11 | 2.6 | 2 | 1.3
ipi.84 Fab (Fab, V domains shown, Tested as monovalent Fab) VH: QVQLVESGGGVVQPGRSLRLSCAASGFTFSHYTMHWVRQAPGKGLEWVTFISYDGHNKYYADSVKGRFTISRDNSKNTLYLQMNSLRAEDTAIYYCARHGWLGPFDYWGQGTLVTVSS VL: not shown | 16 | 1.3e+06 | 35 | 120 |  |  | 7.7 |  | 
ipi.82 Fab (Fab, V domains shown, Tested as monovalent Fab) VH: QVQLVESGGGVVQPGRSLRLSCAASGFTFSHYTMHWVRQAPGKGLEWVTFISYDGNNKYYADSVKGRFTISRDNSKNTLYLQMNSLRAEDTAIYYCARHGWLGPFDYWGQGTLVTVSS VL: not shown | 31 | 1.4e+06 | 16 | 130 |  |  | 4.4 |  | 
ipi.59 Fab (Fab, V domains shown, Tested as monovalent Fab) VH: QVQLVESGGGVVQPGRSLRLSCAASGFTFSSYTMHWVRQAPGKGLEWVTFISYDGHNKYYADSVKGRFTISRDNSKNTLYLQMNSLRAEDTAIYYCARTGWLGPFDYWGQGTLVTVSS VL: not shown | 11 | 1e+06 | 63 | 21 | 810000 | 41 | 1.9 | 1.3 | 1.5

Binders with a lower Kd (monomeric human CTLA-4 [1]), results first:

Kd (monomeric human CTLA-4 [1]) [nM] | kon (monomeric human CTLA-4 [1]) [M⁻¹ s⁻¹] | t1/2 (monomeric human CTLA-4 [1]) [s] | Kd (monomeric human CTLA-4 [2]) [nM] | kon (monomeric human CTLA-4 [2]) [M⁻¹ s⁻¹] | t1/2 (monomeric human CTLA-4 [2]) [s] | KD 7.4/6 (APBP) (monomeric human CTLA-4 [3]) | ka 6/7.4 (monomeric human CTLA-4 [3]) | t1/2 6/7.4 (monomeric human CTLA-4 [3]) | Binder
1.7 | 1.2e+06 | 347 | 1.5 | 1e+06 | 462 | 0.8 | 1.1 | 0.7 | ipi.7 Fab (Fab, V domains shown, Tested as monovalent Fab) VH: QVQLVESGGGVVQPGRSLRLSCAASGFTFSSYHMHWVRQAPGKGLEWVTFISYDGNHKYYADSVKGRFTISRDNSKNTLYLQMNSLRAEDTAIYYCARTGWLGPFDYWGQGTLVTVSS VL: not shown
4.4 | 1.1e+06 | 144 | 28 | 820000 | 30 | 6.3 | 1.3 | 4.7 | ipi.69 Fab (Fab, V domains shown, Tested as monovalent Fab) VH: QVQLVESGGGVVQPGRSLRLSCAASGFTFSHYTMHWVRQAPGKGLEWVTFISYDGHNKYYADSVKGRFTISRDNSKNTLYLQMNSLRAEDTAIYYCARTGWLGPFDYWGQGTLVTVSS VL: not shown
3.5 | 1.2e+06 | 161 | 26 | 700000 | 36 | 7.6 | 1.8 | 4.3 | ipi.66 Fab (Fab, V domains shown, Tested as monovalent Fab) VH: QVQLVESGGGVVQPGRSLRLSCAASGFTFSSYTMHWVRQAPGKGLEWVTFISYDGHNKYYADSVKGRFTISRDNSKNTLYLQMNSLRAEDTAIYYCARTGWLGPFDYWGQGTLVTVSS VL: not shown
1.6 | 1.5e+06 | 289 | 39 | 740000 | 24 | 25 | 2 | 12.2 | ipi.71 Fab (Fab, V domains shown, Tested as monovalent Fab) VH: QVQLVESGGGVVQPGRSLRLSCAASGFTFSHYTMHWVRQAPGKGLEWVTFISYDGHNKYYADSVKGRFTISRDNSKNTLYLQMNSLRAEDTAIYYCARTGWLGPFDYWGQGTLVTVSS VL: not shown
